Laboratory results published in patent publication US20220073935A1.

Target: E2F1-SB, DP1 (E2F1 fragment with C-terminal Small BiT, co-expressed with Dp-1) (human) (UniProt Q01094)
Test: NanoBiT split-luciferase complementation, cells stably expressing E2F1-SB and Dp-1; relative to WT LB-Rb

Chain of E2F1-SB, DP1 (E2F1 fragment with C-terminal Small BiT, co-expressed with Dp-1) (human) (Q01094 whole entry, chain 1 of 2, the tested form may be a part): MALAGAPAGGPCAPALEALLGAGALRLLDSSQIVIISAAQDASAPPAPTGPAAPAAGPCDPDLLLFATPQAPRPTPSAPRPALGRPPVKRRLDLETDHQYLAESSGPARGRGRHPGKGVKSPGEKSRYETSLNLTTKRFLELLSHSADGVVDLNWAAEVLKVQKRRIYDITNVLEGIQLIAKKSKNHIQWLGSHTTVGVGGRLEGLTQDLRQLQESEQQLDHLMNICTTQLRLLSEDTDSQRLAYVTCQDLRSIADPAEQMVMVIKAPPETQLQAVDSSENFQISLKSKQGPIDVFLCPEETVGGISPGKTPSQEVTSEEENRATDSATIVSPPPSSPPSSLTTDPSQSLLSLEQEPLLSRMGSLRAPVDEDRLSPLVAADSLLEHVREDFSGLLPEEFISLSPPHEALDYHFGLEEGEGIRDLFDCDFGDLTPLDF
Chain of E2F1-SB, DP1 (E2F1 fragment with C-terminal Small BiT, co-expressed with Dp-1) (human) (Q14186 whole entry, chain 2 of 2, further chain, the tested form may be a part): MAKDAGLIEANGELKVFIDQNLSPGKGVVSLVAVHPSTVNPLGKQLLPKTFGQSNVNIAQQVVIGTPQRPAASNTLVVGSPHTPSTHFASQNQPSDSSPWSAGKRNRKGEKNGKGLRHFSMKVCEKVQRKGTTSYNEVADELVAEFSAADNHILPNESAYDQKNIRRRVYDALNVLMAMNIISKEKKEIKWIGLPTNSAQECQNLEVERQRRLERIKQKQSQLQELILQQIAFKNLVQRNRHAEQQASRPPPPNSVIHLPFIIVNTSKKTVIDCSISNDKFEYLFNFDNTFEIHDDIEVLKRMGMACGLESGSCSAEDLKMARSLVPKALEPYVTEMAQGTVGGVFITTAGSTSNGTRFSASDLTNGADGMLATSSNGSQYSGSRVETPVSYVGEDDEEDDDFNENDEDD
Chain of LB-Rb (379-928) I703del35, in-frame deletion mutant (P06400 other isoform, or with tags, fused parts or gaps, stated change not applied): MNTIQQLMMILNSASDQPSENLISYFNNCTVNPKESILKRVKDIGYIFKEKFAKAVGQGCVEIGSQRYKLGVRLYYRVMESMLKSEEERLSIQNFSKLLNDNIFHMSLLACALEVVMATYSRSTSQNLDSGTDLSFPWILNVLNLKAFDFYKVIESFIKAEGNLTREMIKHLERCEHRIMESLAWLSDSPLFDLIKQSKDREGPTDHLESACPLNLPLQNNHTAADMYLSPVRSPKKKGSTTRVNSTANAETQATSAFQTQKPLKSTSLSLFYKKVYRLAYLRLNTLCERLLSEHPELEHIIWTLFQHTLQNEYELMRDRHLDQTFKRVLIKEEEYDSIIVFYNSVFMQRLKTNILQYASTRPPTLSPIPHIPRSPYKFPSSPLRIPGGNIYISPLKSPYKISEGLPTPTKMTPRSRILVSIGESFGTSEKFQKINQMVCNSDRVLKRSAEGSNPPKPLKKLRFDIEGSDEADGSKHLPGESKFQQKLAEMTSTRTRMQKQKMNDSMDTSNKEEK

% (/wt) luciferase activity | Molecule
0.8 % (/wt) | LB-Rb (379-928) R661del1, out-of-frame deletion mutant (from UniProt P06400 379-660)
120 % (/wt) | LB-Rb (379-928) R798W (from UniProt P06400 379-928)
8.6 % (/wt) | LB-Rb (379-928) I703del35, in-frame deletion mutant (from UniProt P06400 379-702; P06400 738-928)
51 % (/wt) | LB-Rb (379-928) A488V (protein, part only; not given: Large BiT luciferase tag, human, UniProt P06400 379-928, looked up, part only) chain, part: MNTIQQLMMILNSASDQPSENLISYFNNCTVNPKESILKRVKDIGYIFKEKFAKAVGQGCVEIGSQRYKLGVRLYYRVMESMLKSEEERLSIQNFSKLLNDNIFHMSLLVCALEVVMATYSRSTSQNLDSGTDLSFPWILNVLNLKAFDFYKVIESFIKAEGNLTREMIKHLERCEHRIMESLAWLSDSPLFDLIKQSKDREGPTDHLESACPLNLPLQNNHTAADMYLSPVRSPKKKGSTTRVNSTANAETQATSAFQTQKPLKSTSLSLFYKKVYRLAYLRLNTLCERLLSEHPELEHIIWTLFQHTLQNEYELMRDRHLDQIMMCSMYGICKVKNIDLKFKIIVTAYKDLPHAVQETFKRVLIKEEEYDSIIVFYNSVFMQRLKTNILQYASTRPPTLSPIPHIPRSPYKFPSSPLRIPGGNIYISPLKSPYKISEGLPTPTKMTPRSRILVSIGESFGTSEKFQKINQMVCNSDRVLKRSAEGSNPPKPLKKLRFDIEGSDEADGSKHLPGESKFQQKLAEMTSTRTRMQKQKMNDSMDTSNKEEK
7.4 % (/wt) | LB-Rb (379-928) I724N (protein, part only; not given: Large BiT luciferase tag, human, UniProt P06400 379-928, looked up, part only) chain, part: MNTIQQLMMILNSASDQPSENLISYFNNCTVNPKESILKRVKDIGYIFKEKFAKAVGQGCVEIGSQRYKLGVRLYYRVMESMLKSEEERLSIQNFSKLLNDNIFHMSLLACALEVVMATYSRSTSQNLDSGTDLSFPWILNVLNLKAFDFYKVIESFIKAEGNLTREMIKHLERCEHRIMESLAWLSDSPLFDLIKQSKDREGPTDHLESACPLNLPLQNNHTAADMYLSPVRSPKKKGSTTRVNSTANAETQATSAFQTQKPLKSTSLSLFYKKVYRLAYLRLNTLCERLLSEHPELEHIIWTLFQHTLQNEYELMRDRHLDQIMMCSMYGICKVKNIDLKFKINVTAYKDLPHAVQETFKRVLIKEEEYDSIIVFYNSVFMQRLKTNILQYASTRPPTLSPIPHIPRSPYKFPSSPLRIPGGNIYISPLKSPYKISEGLPTPTKMTPRSRILVSIGESFGTSEKFQKINQMVCNSDRVLKRSAEGSNPPKPLKKLRFDIEGSDEADGSKHLPGESKFQQKLAEMTSTRTRMQKQKMNDSMDTSNKEEK
6.4 % (/wt) | LB-Rb (379-928) R698W (protein, part only; not given: Large BiT luciferase tag, human, UniProt P06400 379-928, looked up, part only) chain, part: MNTIQQLMMILNSASDQPSENLISYFNNCTVNPKESILKRVKDIGYIFKEKFAKAVGQGCVEIGSQRYKLGVRLYYRVMESMLKSEEERLSIQNFSKLLNDNIFHMSLLACALEVVMATYSRSTSQNLDSGTDLSFPWILNVLNLKAFDFYKVIESFIKAEGNLTREMIKHLERCEHRIMESLAWLSDSPLFDLIKQSKDREGPTDHLESACPLNLPLQNNHTAADMYLSPVRSPKKKGSTTRVNSTANAETQATSAFQTQKPLKSTSLSLFYKKVYRLAYLRLNTLCERLLSEHPELEHIIWTLFQHTLQNEYELMRDWHLDQIMMCSMYGICKVKNIDLKFKIIVTAYKDLPHAVQETFKRVLIKEEEYDSIIVFYNSVFMQRLKTNILQYASTRPPTLSPIPHIPRSPYKFPSSPLRIPGGNIYISPLKSPYKISEGLPTPTKMTPRSRILVSIGESFGTSEKFQKINQMVCNSDRVLKRSAEGSNPPKPLKKLRFDIEGSDEADGSKHLPGESKFQQKLAEMTSTRTRMQKQKMNDSMDTSNKEEK
5.5 % (/wt) | LB-Rb (379-928) C706F (protein, part only; not given: Large BiT luciferase tag, human, UniProt P06400 379-928, looked up, part only) chain, part: MNTIQQLMMILNSASDQPSENLISYFNNCTVNPKESILKRVKDIGYIFKEKFAKAVGQGCVEIGSQRYKLGVRLYYRVMESMLKSEEERLSIQNFSKLLNDNIFHMSLLACALEVVMATYSRSTSQNLDSGTDLSFPWILNVLNLKAFDFYKVIESFIKAEGNLTREMIKHLERCEHRIMESLAWLSDSPLFDLIKQSKDREGPTDHLESACPLNLPLQNNHTAADMYLSPVRSPKKKGSTTRVNSTANAETQATSAFQTQKPLKSTSLSLFYKKVYRLAYLRLNTLCERLLSEHPELEHIIWTLFQHTLQNEYELMRDRHLDQIMMFSMYGICKVKNIDLKFKIIVTAYKDLPHAVQETFKRVLIKEEEYDSIIVFYNSVFMQRLKTNILQYASTRPPTLSPIPHIPRSPYKFPSSPLRIPGGNIYISPLKSPYKISEGLPTPTKMTPRSRILVSIGESFGTSEKFQKINQMVCNSDRVLKRSAEGSNPPKPLKKLRFDIEGSDEADGSKHLPGESKFQQKLAEMTSTRTRMQKQKMNDSMDTSNKEEK
5 % (/wt) | LB-Rb (379-928) L665R (protein, part only; not given: Large BiT luciferase tag, human, UniProt P06400 379-928, looked up, part only) chain, part: MNTIQQLMMILNSASDQPSENLISYFNNCTVNPKESILKRVKDIGYIFKEKFAKAVGQGCVEIGSQRYKLGVRLYYRVMESMLKSEEERLSIQNFSKLLNDNIFHMSLLACALEVVMATYSRSTSQNLDSGTDLSFPWILNVLNLKAFDFYKVIESFIKAEGNLTREMIKHLERCEHRIMESLAWLSDSPLFDLIKQSKDREGPTDHLESACPLNLPLQNNHTAADMYLSPVRSPKKKGSTTRVNSTANAETQATSAFQTQKPLKSTSLSLFYKKVYRLAYLRLNTRCERLLSEHPELEHIIWTLFQHTLQNEYELMRDRHLDQIMMCSMYGICKVKNIDLKFKIIVTAYKDLPHAVQETFKRVLIKEEEYDSIIVFYNSVFMQRLKTNILQYASTRPPTLSPIPHIPRSPYKFPSSPLRIPGGNIYISPLKSPYKISEGLPTPTKMTPRSRILVSIGESFGTSEKFQKINQMVCNSDRVLKRSAEGSNPPKPLKKLRFDIEGSDEADGSKHLPGESKFQQKLAEMTSTRTRMQKQKMNDSMDTSNKEEK
132 % (/wt) | LB-Rb (379-928) V654M (protein, part only; not given: Large BiT luciferase tag, human, UniProt P06400 379-928, looked up, part only) chain, part: MNTIQQLMMILNSASDQPSENLISYFNNCTVNPKESILKRVKDIGYIFKEKFAKAVGQGCVEIGSQRYKLGVRLYYRVMESMLKSEEERLSIQNFSKLLNDNIFHMSLLACALEVVMATYSRSTSQNLDSGTDLSFPWILNVLNLKAFDFYKVIESFIKAEGNLTREMIKHLERCEHRIMESLAWLSDSPLFDLIKQSKDREGPTDHLESACPLNLPLQNNHTAADMYLSPVRSPKKKGSTTRVNSTANAETQATSAFQTQKPLKSTSLSLFYKKMYRLAYLRLNTLCERLLSEHPELEHIIWTLFQHTLQNEYELMRDRHLDQIMMCSMYGICKVKNIDLKFKIIVTAYKDLPHAVQETFKRVLIKEEEYDSIIVFYNSVFMQRLKTNILQYASTRPPTLSPIPHIPRSPYKFPSSPLRIPGGNIYISPLKSPYKISEGLPTPTKMTPRSRILVSIGESFGTSEKFQKINQMVCNSDRVLKRSAEGSNPPKPLKKLRFDIEGSDEADGSKHLPGESKFQQKLAEMTSTRTRMQKQKMNDSMDTSNKEEK
124 % (/wt) | LB-Rb (379-928) R621S (protein, part only; not given: Large BiT luciferase tag, human, UniProt P06400 379-928, looked up, part only) chain, part: MNTIQQLMMILNSASDQPSENLISYFNNCTVNPKESILKRVKDIGYIFKEKFAKAVGQGCVEIGSQRYKLGVRLYYRVMESMLKSEEERLSIQNFSKLLNDNIFHMSLLACALEVVMATYSRSTSQNLDSGTDLSFPWILNVLNLKAFDFYKVIESFIKAEGNLTREMIKHLERCEHRIMESLAWLSDSPLFDLIKQSKDREGPTDHLESACPLNLPLQNNHTAADMYLSPVRSPKKKGSTTSVNSTANAETQATSAFQTQKPLKSTSLSLFYKKVYRLAYLRLNTLCERLLSEHPELEHIIWTLFQHTLQNEYELMRDRHLDQIMMCSMYGICKVKNIDLKFKIIVTAYKDLPHAVQETFKRVLIKEEEYDSIIVFYNSVFMQRLKTNILQYASTRPPTLSPIPHIPRSPYKFPSSPLRIPGGNIYISPLKSPYKISEGLPTPTKMTPRSRILVSIGESFGTSEKFQKINQMVCNSDRVLKRSAEGSNPPKPLKKLRFDIEGSDEADGSKHLPGESKFQQKLAEMTSTRTRMQKQKMNDSMDTSNKEEK
92 % (/wt) | LB-Rb (379-928) R798Q (protein, part only; not given: Large BiT luciferase tag, human, UniProt P06400 379-928, looked up, part only) chain, part: MNTIQQLMMILNSASDQPSENLISYFNNCTVNPKESILKRVKDIGYIFKEKFAKAVGQGCVEIGSQRYKLGVRLYYRVMESMLKSEEERLSIQNFSKLLNDNIFHMSLLACALEVVMATYSRSTSQNLDSGTDLSFPWILNVLNLKAFDFYKVIESFIKAEGNLTREMIKHLERCEHRIMESLAWLSDSPLFDLIKQSKDREGPTDHLESACPLNLPLQNNHTAADMYLSPVRSPKKKGSTTRVNSTANAETQATSAFQTQKPLKSTSLSLFYKKVYRLAYLRLNTLCERLLSEHPELEHIIWTLFQHTLQNEYELMRDRHLDQIMMCSMYGICKVKNIDLKFKIIVTAYKDLPHAVQETFKRVLIKEEEYDSIIVFYNSVFMQRLKTNILQYASTRPPTLSPIPHIPRSPYKFPSSPLQIPGGNIYISPLKSPYKISEGLPTPTKMTPRSRILVSIGESFGTSEKFQKINQMVCNSDRVLKRSAEGSNPPKPLKKLRFDIEGSDEADGSKHLPGESKFQQKLAEMTSTRTRMQKQKMNDSMDTSNKEEK
47 % (/wt) | LB-Rb (379-928) E440K (protein, part only; not given: Large BiT luciferase tag, human, UniProt P06400 379-928, looked up, part only) chain, part: MNTIQQLMMILNSASDQPSENLISYFNNCTVNPKESILKRVKDIGYIFKEKFAKAVGQGCVKIGSQRYKLGVRLYYRVMESMLKSEEERLSIQNFSKLLNDNIFHMSLLACALEVVMATYSRSTSQNLDSGTDLSFPWILNVLNLKAFDFYKVIESFIKAEGNLTREMIKHLERCEHRIMESLAWLSDSPLFDLIKQSKDREGPTDHLESACPLNLPLQNNHTAADMYLSPVRSPKKKGSTTRVNSTANAETQATSAFQTQKPLKSTSLSLFYKKVYRLAYLRLNTLCERLLSEHPELEHIIWTLFQHTLQNEYELMRDRHLDQIMMCSMYGICKVKNIDLKFKIIVTAYKDLPHAVQETFKRVLIKEEEYDSIIVFYNSVFMQRLKTNILQYASTRPPTLSPIPHIPRSPYKFPSSPLRIPGGNIYISPLKSPYKISEGLPTPTKMTPRSRILVSIGESFGTSEKFQKINQMVCNSDRVLKRSAEGSNPPKPLKKLRFDIEGSDEADGSKHLPGESKFQQKLAEMTSTRTRMQKQKMNDSMDTSNKEEK
79 % (/wt) | LB-Rb (379-928) R656W (protein, part only; not given: Large BiT luciferase tag, human, UniProt P06400 379-928, looked up, part only) chain, part: MNTIQQLMMILNSASDQPSENLISYFNNCTVNPKESILKRVKDIGYIFKEKFAKAVGQGCVEIGSQRYKLGVRLYYRVMESMLKSEEERLSIQNFSKLLNDNIFHMSLLACALEVVMATYSRSTSQNLDSGTDLSFPWILNVLNLKAFDFYKVIESFIKAEGNLTREMIKHLERCEHRIMESLAWLSDSPLFDLIKQSKDREGPTDHLESACPLNLPLQNNHTAADMYLSPVRSPKKKGSTTRVNSTANAETQATSAFQTQKPLKSTSLSLFYKKVYWLAYLRLNTLCERLLSEHPELEHIIWTLFQHTLQNEYELMRDRHLDQIMMCSMYGICKVKNIDLKFKIIVTAYKDLPHAVQETFKRVLIKEEEYDSIIVFYNSVFMQRLKTNILQYASTRPPTLSPIPHIPRSPYKFPSSPLRIPGGNIYISPLKSPYKISEGLPTPTKMTPRSRILVSIGESFGTSEKFQKINQMVCNSDRVLKRSAEGSNPPKPLKKLRFDIEGSDEADGSKHLPGESKFQQKLAEMTSTRTRMQKQKMNDSMDTSNKEEK
